Series [1] has as its target T1, Hfq102R16A,R17A (Escherichia coli, UniProt P0A6X3 1-102, R16A;R17A). The series can be described thus: EMSA; two shifted bands; ITC/FA: 0.25 M NaCl, 20 mM Hepes/NaOH pH 8.0, 5 mM MgCl2, 2% glycerol, 25 C (FA plus 1 g/l BSA); EMSA: 0.25 M NaCl, 50 mM Tris pH 7.5, 10% glycerol, 25 C, 20 nM RNA, 2-200 nM Hfq. As to conditions: protein: recombinant; tags: 6xHis-SUMO tag cleaved (SenP2); chain copies: 6; label: none (AUC, ITC); 5'-32P (EMSA). On the technique in general: A gel shift assay detects complexes by their altered migration in electrophoresis.

The target in series [2] is T2, Hfq72 (Escherichia coli, UniProt P0A6X3 1-72). Put plainly: ITC; first of two events; ITC/FA: 0.25 M NaCl, 20 mM Hepes/NaOH pH 8.0, 5 mM MgCl2, 2% glycerol, 25 C (FA plus 1 g/l BSA); EMSA: 0.25 M NaCl, 50 mM Tris pH 7.5, 10% glycerol, 25 C, 20 nM RNA, 2-200 nM Hfq. As to conditions: protein: recombinant; tags: 6xHis-SUMO tag cleaved (SenP2); chain copies: 6; label: none (AUC, ITC); 5'-32P (EMSA). (In ITC the heat of successive injections is recorded.)

Series [3] addresses T3, Hfq102 (Escherichia coli, UniProt P0A6X3 1-102). Put plainly: AUC; s = 4.5S alone; with OxyS segment ternary s = 5.9S; ITC/FA: 0.25 M NaCl, 20 mM Hepes/NaOH pH 8.0, 5 mM MgCl2, 2% glycerol, 25 C (FA plus 1 g/l BSA); EMSA: 0.25 M NaCl, 50 mM Tris pH 7.5, 10% glycerol, 25 C, 20 nM RNA, 2-200 nM Hfq. The conditions noted are these: protein: recombinant; tags: 6xHis-SUMO tag cleaved (SenP2); chain copies: 6; label: 3' Cy3 or Cy5.

The target of series [4] is T3, Hfq102. Put plainly: AUC; s = 4.5S alone; with fhlA segment ternary s = 5.9S; ITC/FA: 0.25 M NaCl, 20 mM Hepes/NaOH pH 8.0, 5 mM MgCl2, 2% glycerol, 25 C (FA plus 1 g/l BSA); EMSA: 0.25 M NaCl, 50 mM Tris pH 7.5, 10% glycerol, 25 C, 20 nM RNA, 2-200 nM Hfq. The conditions noted are these: protein: recombinant; tags: 6xHis-SUMO tag cleaved (SenP2); chain copies: 6; label: 3' Cy5 or Cy3.

Series [5] deals with T2, Hfq72. Put plainly: fluorescence anisotropy; first of two events; 1 g/l BSA; ITC/FA: 0.25 M NaCl, 20 mM Hepes/NaOH pH 8.0, 5 mM MgCl2, 2% glycerol, 25 C (FA plus 1 g/l BSA); EMSA: 0.25 M NaCl, 50 mM Tris pH 7.5, 10% glycerol, 25 C, 20 nM RNA, 2-200 nM Hfq. The conditions noted are these: protein: recombinant; tags: 6xHis-SUMO tag cleaved (SenP2); chain copies: 6; label: 3'-ATTO488. (Fluorescence polarisation rises when a labelled molecule tumbles more slowly, as on binding a larger partner.)

Series [6] concerns the target T2, Hfq72. The series can be described thus: X-ray crystallography; 2.5 A; distal face; (Hfq6:A18)2 dimer by N-site base stacking; pH 4.2; ITC/FA: 0.25 M NaCl, 20 mM Hepes/NaOH pH 8.0, 5 mM MgCl2, 2% glycerol, 25 C (FA plus 1 g/l BSA); EMSA: 0.25 M NaCl, 50 mM Tris pH 7.5, 10% glycerol, 25 C, 20 nM RNA, 2-200 nM Hfq. As to conditions: protein: recombinant; tags: 6xHis-SUMO tag cleaved (SenP2); chain copies: 6.

The target in series [7] is T1, Hfq102R16A,R17A. The series can be described thus: EMSA; significant supershift; ITC/FA: 0.25 M NaCl, 20 mM Hepes/NaOH pH 8.0, 5 mM MgCl2, 2% glycerol, 25 C (FA plus 1 g/l BSA); EMSA: 0.25 M NaCl, 50 mM Tris pH 7.5, 10% glycerol, 25 C, 20 nM RNA, 2-200 nM Hfq. As to conditions: protein: recombinant; tags: 6xHis-SUMO tag cleaved (SenP2); chain copies: 6; label: 5'-32P.

A word on the Kd: it is the constant that tells how readily two partners part at equilibrium.

B1: A20 (ssRNA)
RNA: AAAAAAAAAAAAAAAAAAAA
For B1, in the series with Hfq102R16A,R17A [1], the binding result is “binds”. The Kd with Hfq72 [2] came to 1.3 nM.

B2: fhlA (ARN)X segment (ssRNA)
RNA: CUAAUAAAAUUCUACCUAGAAGAACAAAAUGUC
As to B2, the binding result in the series with Hfq102 [3] is reported as “binds”.

B3: OxyS (ARN)X segment (ssRNA)
RNA: UCAACUCGAAUAACUAAAGCCAACGUGAAC
Regarding B3, the binding result with Hfq102 [4] was “binds”.

B4: A20-ATTO488 (ssRNA)
RNA: AAAAAAAAAAAAAAAAAAAA
B4: the Kd in the series with Hfq72 [5] is 0.4 nM.

B5: A18 (ordered part of A30) (ssRNA)
RNA: AAAAAAAAAAAAAAAAAA
Consider B5, for which the binding result in the series with Hfq72 [6] is reported as “binds”.

B6: AAG (ssRNA)
RNA: AAGAAGAAGAAGAAGAAGAA
Regarding B6, the binding result with Hfq102R16A,R17A [7] was “binds”.

The values above are taken from article PMC5575007, “Intermolecular base stacking mediates RNA-RNA interaction in a crystal structure of the RNA chaperone Hfq”.
